# Measurements: patent US20090068174A1, “THERAPEUTIC ALKALINE PROTEASE COMPOSITIONS AND USE IN FACILITATING THE TRANSPORT OF AGENTS ACROSS THE GASTROINTESTINAL MUCOSAL LINING” (Kansas University Medical Center Research Institute, Inc., priority 2007, published 2009)
# Target: T1, mouse recombinant TNF-α (Mus musculus, UniProt P06804)
# T1 sequence (P06804 80-235 limits assumed): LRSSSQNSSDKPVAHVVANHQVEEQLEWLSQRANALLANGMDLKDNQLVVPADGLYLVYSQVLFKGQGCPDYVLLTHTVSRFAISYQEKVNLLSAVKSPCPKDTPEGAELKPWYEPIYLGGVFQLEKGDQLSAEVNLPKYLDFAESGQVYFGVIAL
# Assay: Bioactivity of protease-treated mouse TNF-α in the C2C12 cell bioassay (nitrite)
# Assay type: cell-based
# Settings: C2C12 cells, NO (nitrite) production
# Protocol: Effects of three purified A. oryzae proteases on the bioactivity of mouse TNF-α (A) protease powder prepared according to Example 1 (preparation); (B) alkaline protease; (C) 26 kDa protease; and (D) deuterolysin. 50 ng quantities of TNF-α were incubated at 37° C. for 24 hours with the indicated quantities of the protease powder prepared according to Example 1 or one of the three purified proteases. The reactions were then stopped by addition of FBS and samples were added to C2C12 cells that had been costimulated with mouse IFN-γ. Twenty-four hours later, nitrite was measured in culture fluids.
# The protease powder prepared according to Example 1 inactivates mouse recombinant TNF-α. 50 ng of the cytokine was treated for 24 hours with either 0 (□); 5 (∘); or 10 ng ([…]) of either Pseudomonas elastase (A) or protease powder prepared according to Example 1 (B). Then the residual bioactivity of the cytokine was measured by its ability to co-activate mouse C2C12 myoblast cells in the presence of excess IFN-γ for the production of NO (nitrite).
# The protease powder prepared according to Example 1 inactivates mouse recombinant TNF-α by limited proteolysis. […]
substance,measurement,value
Pseudomonas elastase: Pseudomonas protease used as a positive control [reference compound],Effect on bioactivity of mouse TNF-α,led to a loss of its biological activity
